Our source for the self-aminoacylation values is the supplement of paper PMC9233669.

For one series, the system named is biotinyl-Phe-oxazolone. In words: self-aminoacylation, catalytic enhancement (BFO) (fold over background); higher = more active; k-Seq, kA / k0A0; sequences stand for … in GGGAAUGGAUCCACAUCUACGAAUUC…UUCACUGCAGACUUGACGAAGCUG
In a few lines: (§1)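 Each biotinyl-aminoacyl-oxazolone, at 2–1250 μM, was incubated with mutagenized RNA pools (0.43 μM) carrying a 21-nt variable region. The 50 μL reactions contained HEPES/NaCl/KCl/MgCl2/CaCl2 buffer with 5% acetonitrile at pH 6.9–7.0 and ran for 90 minutes at room temperature. After streptavidin capture, RNA was measured by qPCR in triplicate and by Illumina sequencing, and catalytic enhancement was calculated as median kA over the uncatalyzed rate from a pseudo-first-order fit of per-sequence fraction reacted.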

The test system of another series is biotinyl-Met-oxazolone. In words: self-aminoacylation, catalytic enhancement (BMO) (fold over background); higher = more active; k-Seq, kA / k0A0; sequences stand for … in GGGAAUGGAUCCACAUCUACGAAUUC…UUCACUGCAGACUUGACGAAGCUG
Put shortly: as §1

The next series deals with biotinyl-Ile-oxazolone. In words: self-aminoacylation, catalytic enhancement (BIO) (fold over background); higher = more active; k-Seq, kA / k0A0; sequences stand for … in GGGAAUGGAUCCACAUCUACGAAUUC…UUCACUGCAGACUUGACGAAGCUG
In a few lines: as §1

Another series deals with biotinyl-Val-oxazolone. In words: self-aminoacylation, catalytic enhancement (BVO) (fold over background); higher = more active; k-Seq, kA / k0A0; sequences stand for … in GGGAAUGGAUCCACAUCUACGAAUUC…UUCACUGCAGACUUGACGAAGCUG
Put shortly: as §1

A further series deals with biotinyl-Leu-oxazolone. In words: self-aminoacylation, catalytic enhancement (BLO) (fold over background); higher = more active; k-Seq, kA / k0A0; sequences stand for … in GGGAAUGGAUCCACAUCUACGAAUUC…UUCACUGCAGACUUGACGAAGCUG
In a few lines: as §1

The next series has as its system biotinyl-Trp-oxazolone. In words: self-aminoacylation, catalytic enhancement (BWO) (fold over background); higher = more active; k-Seq, kA / k0A0; sequences stand for … in GGGAAUGGAUCCACAUCUACGAAUUC…UUCACUGCAGACUUGACGAAGCUG
In a few lines:
as §1

Variants at the floor of the assay were thinned out.

Regarding “AUUUCCCUGGUCAUCGAGUGA [Fam2.1 aminoacylation ribozyme variant]”, the self-aminoacylation in the series on biotinyl-Phe-oxazolone worked out at 27.4; with biotinyl-Met-oxazolone, 14.3; in the series on biotinyl-Ile-oxazolone, 7.41; in the series with biotinyl-Val-oxazolone it was 8.47; with biotinyl-Leu-oxazolone, 14.3; in the series on biotinyl-Trp-oxazolone, 16.5.
As to “CCACACUCCAAGCAAUCAGUC [Fam1B.1 aminoacylation ribozyme variant]”, the self-aminoacylation with biotinyl-Phe-oxazolone was found to be 1.54; in the series with biotinyl-Met-oxazolone, 0.699; in the series with biotinyl-Ile-oxazolone, 0.781; in the series on biotinyl-Val-oxazolone, 0.911; in the series on biotinyl-Leu-oxazolone, 0.73; with biotinyl-Trp-oxazolone it was 0.672.
With “CCACUAUUCAAGCAAUCGGUC [Fam1B.1 aminoacylation ribozyme variant]”, the self-aminoacylation with biotinyl-Phe-oxazolone stood at 1.75; with biotinyl-Met-oxazolone, 0.916; in the series on biotinyl-Ile-oxazolone it was 1.04; with biotinyl-Val-oxazolone, 1.09; in the series on biotinyl-Leu-oxazolone, 0.944; with biotinyl-Trp-oxazolone, 1.23.
For the sequence “AUUACUCUGGUCAUCGAGUAA [Fam2.1 aminoacylation ribozyme variant]”, the self-aminoacylation in the series with biotinyl-Phe-oxazolone is 1.42; in the series with biotinyl-Met-oxazolone it was 2.23; in the series with biotinyl-Ile-oxazolone, 2.21; in the series with biotinyl-Val-oxazolone, 1.79; in the series with biotinyl-Leu-oxazolone, 1.92; in the series with biotinyl-Trp-oxazolone it was 2.27.
For “UCACACUUCAAGCAAUCGUUC [Fam1B.1 aminoacylation ribozyme variant]”, the self-aminoacylation was determined as 1.45 with biotinyl-Phe-oxazolone; 0.602 in the series on biotinyl-Met-oxazolone; 0.696 in the series with biotinyl-Ile-oxazolone; 0.792 in the series with biotinyl-Val-oxazolone; 0.611 in the series on biotinyl-Leu-oxazolone; 0.608 in the series with biotinyl-Trp-oxazolone.
“ACUCACCUAGGUAAUCGGGUG [Fam2.2 aminoacylation ribozyme variant]”: the self-aminoacylation amounted to 23.9 with biotinyl-Phe-oxazolone; 4.2 in the series with biotinyl-Met-oxazolone; 3.22 in the series with biotinyl-Ile-oxazolone; 2.85 in the series on biotinyl-Val-oxazolone; 3.66 in the series with biotinyl-Leu-oxazolone; 4.3 in the series on biotinyl-Trp-oxazolone.
As for “AUUCACGUAGGUCAUAGGGUG [Fam2.2 aminoacylation ribozyme variant]”, the self-aminoacylation with biotinyl-Phe-oxazolone is 2.23; in the series on biotinyl-Met-oxazolone, 2.17; in the series on biotinyl-Ile-oxazolone, 1.67; with biotinyl-Val-oxazolone, 1.92; in the series on biotinyl-Leu-oxazolone, 2.36; with biotinyl-Trp-oxazolone it was 1.97.
For the sequence “UUUAGCCUGGUCAUCGAGUGA [Fam2.1 aminoacylation ribozyme variant]”, the self-aminoacylation in the series with biotinyl-Phe-oxazolone amounted to 21.9; in the series with biotinyl-Met-oxazolone it was 5.59; in the series with biotinyl-Ile-oxazolone, 4.42; in the series with biotinyl-Val-oxazolone, 4.28; in the series with biotinyl-Leu-oxazolone it was 5.82; in the series on biotinyl-Trp-oxazolone, 7.
Turning to “CCACACUUCAAGCGAUCGGAC [Fam1B.1 aminoacylation ribozyme variant]”, the self-aminoacylation came to 0.588 with biotinyl-Phe-oxazolone; 1.33 with biotinyl-Met-oxazolone; 1.22 in the series with biotinyl-Ile-oxazolone; 1.27 in the series with biotinyl-Val-oxazolone; 1.26 with biotinyl-Leu-oxazolone; 1.36 in the series on biotinyl-Trp-oxazolone.
In the case of “GUUCACCUAGGUCAUCGCGUG [Fam2.2 aminoacylation ribozyme variant]”, the self-aminoacylation with biotinyl-Phe-oxazolone worked out at 96.1; in the series with biotinyl-Met-oxazolone it was 10.5; in the series with biotinyl-Ile-oxazolone, 6.72; in the series on biotinyl-Val-oxazolone, 6.96; in the series on biotinyl-Leu-oxazolone, 15; with biotinyl-Trp-oxazolone, 10.6.
Regarding “CCACACUUCAAGCAAUCCGUC [Fam1B.1 aminoacylation ribozyme variant]”, the self-aminoacylation in the series on biotinyl-Phe-oxazolone is 1.34; in the series with biotinyl-Met-oxazolone, 0.659; in the series on biotinyl-Ile-oxazolone, 0.894; with biotinyl-Val-oxazolone, 1.01; in the series on biotinyl-Leu-oxazolone, 0.664; in the series on biotinyl-Trp-oxazolone it was 0.828.
For the sequence “AUUCACCAAGGUCAUCGGGCG [Fam2.2 aminoacylation ribozyme variant]”, the self-aminoacylation was determined as 16 with biotinyl-Phe-oxazolone; 4.07 in the series with biotinyl-Met-oxazolone; 3.24 in the series with biotinyl-Ile-oxazolone; 3.64 with biotinyl-Val-oxazolone; 4.59 with biotinyl-Leu-oxazolone; 3.82 with biotinyl-Trp-oxazolone.
Take “AAGUUUGCUAAUAUUCGCAGG [Fam3.1 aminoacylation ribozyme variant]”: the self-aminoacylation in the series with biotinyl-Phe-oxazolone amounted to 1.32; in the series on biotinyl-Met-oxazolone, 1.68; in the series on biotinyl-Ile-oxazolone it was 1.35; in the series on biotinyl-Val-oxazolone, 1.31; in the series with biotinyl-Leu-oxazolone it was 1.4; in the series with biotinyl-Trp-oxazolone, 2.04.
For the sequence “CUACUACAAACAAUCGGUCAG [Fam1A.1 aminoacylation ribozyme variant]”, the self-aminoacylation is 0.636 in the series on biotinyl-Phe-oxazolone; 0.547 with biotinyl-Met-oxazolone; 0.561 with biotinyl-Ile-oxazolone; 0.646 in the series with biotinyl-Val-oxazolone; 0.414 in the series on biotinyl-Leu-oxazolone; 0.537 in the series on biotinyl-Trp-oxazolone.
On to “AUUAACCUGGUCAUCCAGUGA [Fam2.1 aminoacylation ribozyme variant]”, for which the self-aminoacylation with biotinyl-Phe-oxazolone is 18.6; in the series with biotinyl-Met-oxazolone it was 4.16; in the series on biotinyl-Ile-oxazolone, 2.38; in the series with biotinyl-Val-oxazolone, 2.56; in the series with biotinyl-Leu-oxazolone it was 4.45; in the series on biotinyl-Trp-oxazolone, 5.64.
On to “AUUACGCUGGUCAUCGAUUGA [Fam2.1 aminoacylation ribozyme variant]”, for which the self-aminoacylation in the series on biotinyl-Phe-oxazolone was found to be 0.858; with biotinyl-Met-oxazolone, 1.29; in the series on biotinyl-Ile-oxazolone, 1.18; in the series with biotinyl-Val-oxazolone it was 1.18; in the series on biotinyl-Leu-oxazolone it was 1.24; in the series with biotinyl-Trp-oxazolone, 1.41.
As to “CCACACUUCAAACAAUCGGUC [Fam1B.1 aminoacylation ribozyme variant]”, the self-aminoacylation with biotinyl-Phe-oxazolone was 102; in the series with biotinyl-Met-oxazolone, 1.46; with biotinyl-Ile-oxazolone, 1.38; with biotinyl-Val-oxazolone it was 1.53; with biotinyl-Leu-oxazolone, 2.32; in the series with biotinyl-Trp-oxazolone, 47.
As for “CAGUUUGCCAAUAGUCGCAAG [Fam3.1 aminoacylation ribozyme variant]”, the self-aminoacylation in the series on biotinyl-Phe-oxazolone was found to be 6.08; in the series with biotinyl-Met-oxazolone, 1.83; with biotinyl-Ile-oxazolone, 2.08; in the series on biotinyl-Val-oxazolone it was 1.82; in the series with biotinyl-Leu-oxazolone it was 1.91; in the series on biotinyl-Trp-oxazolone, 1.34.
With “AGUACCCUGGUCAUCGAUUGA [Fam2.1 aminoacylation ribozyme variant]”, the self-aminoacylation in the series on biotinyl-Phe-oxazolone amounted to 1.09; in the series on biotinyl-Met-oxazolone it was 0.999; in the series with biotinyl-Ile-oxazolone, 1.09; with biotinyl-Val-oxazolone, 0.981; in the series on biotinyl-Leu-oxazolone, 1.07; in the series with biotinyl-Trp-oxazolone, 1.58.
For “CAACACUUCAAGCAAUCAGUC [Fam1B.1 aminoacylation ribozyme variant]”, the self-aminoacylation turned out to be 14.5 in the series on biotinyl-Phe-oxazolone; 0.716 in the series on biotinyl-Met-oxazolone; 0.858 with biotinyl-Ile-oxazolone; 0.772 with biotinyl-Val-oxazolone; 0.923 in the series on biotinyl-Leu-oxazolone; 4.78 in the series with biotinyl-Trp-oxazolone.
For the sequence “AUUCACCUAGGGCAUCGGGCG [Fam2.2 aminoacylation ribozyme variant]”, the self-aminoacylation with biotinyl-Phe-oxazolone came to 15.7; in the series with biotinyl-Met-oxazolone it was 3.47; in the series with biotinyl-Ile-oxazolone it was 3.54; in the series on biotinyl-Val-oxazolone it was 4.35; in the series with biotinyl-Leu-oxazolone, 4.74; in the series on biotinyl-Trp-oxazolone, 2.7.
